Reference: PMC11115209

Key:
His6-TBC1D15 [1] = target: His6-TBC1D15 (UniProt Q8TC07); assay: HA beads pulldown, immunoblot band quantification; settings: read off a plot
His6-TBC1D15 [2] = target: His6-TBC1D15 (UniProt Q8TC07); assay: immunoprecipitation with Flag beads, immunoblot band quantification; settings: HA-SUMO2 co-expressed, read off a plot, scale: relative band intensity
[3] = + SulF (GST-SulF), parent: est. 0.16

Chain of UniProt Q8TC07 (Q8TC07 whole entry, looked up): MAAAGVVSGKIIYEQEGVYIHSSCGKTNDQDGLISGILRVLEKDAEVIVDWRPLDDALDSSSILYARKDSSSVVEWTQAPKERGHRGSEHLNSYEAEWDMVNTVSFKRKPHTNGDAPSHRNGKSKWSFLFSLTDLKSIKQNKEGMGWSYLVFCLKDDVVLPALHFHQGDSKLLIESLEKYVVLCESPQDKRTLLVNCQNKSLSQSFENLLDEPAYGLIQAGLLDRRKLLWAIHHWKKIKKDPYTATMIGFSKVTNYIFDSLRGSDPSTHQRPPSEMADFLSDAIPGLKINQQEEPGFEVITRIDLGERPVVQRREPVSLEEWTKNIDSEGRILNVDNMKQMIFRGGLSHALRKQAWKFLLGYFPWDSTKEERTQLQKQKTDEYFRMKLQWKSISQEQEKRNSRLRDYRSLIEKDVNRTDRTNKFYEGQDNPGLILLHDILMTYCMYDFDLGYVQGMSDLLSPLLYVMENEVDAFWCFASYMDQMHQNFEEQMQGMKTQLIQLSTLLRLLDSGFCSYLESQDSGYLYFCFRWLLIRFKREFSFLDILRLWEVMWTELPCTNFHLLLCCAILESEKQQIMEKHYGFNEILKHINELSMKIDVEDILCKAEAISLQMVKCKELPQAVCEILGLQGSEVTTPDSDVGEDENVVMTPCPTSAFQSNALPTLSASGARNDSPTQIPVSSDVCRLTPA

Substance | response (relative ratio) (His6-TBC1D15 [1]; Buffer added after 1 h incubation) | response (relative ratio) (His6-TBC1D15 [1]; GST added after 1 h incubation) | response (relative ratio) (His6-TBC1D15 [1]; GST-SulF added after 1 h incubation (competition)) | response (relative ratio) (His6-TBC1D15 [1]; GST-SulFIV/AA added after 1 h incubation (competition)) | response (His6-TBC1D15 [2]; + GST, parent: est. 0.25) | response (His6-TBC1D15 [2]; [3])
Flag-Rab7 WT (Rab7 part of m4) Q67L | 1 | 1.1 | 0.34 | 1.1 | 0.88 | 0.48
Flag-Rab7 WT (Rab7 part of m4) Q67L; K175R | – | – | – | – | 1 | 1.1
Flag-Rab7 WT (Rab7 part of m4) T22N | – | – | – | – | 0.57 | 0.31
